Measured values published in patent US20210246166A1 (Bayer, published 2021).
Numbered stars: 1 amine (or outer) side, 2 acyl side, 3 side chain; on linkers, the order of the positions; unused ones are H or OH. Bridge positions count the residues as written; N and C are the ends. Square brackets hold non-standard residues; d marks the D form. Ends that are not written are not given here. * marks the point of attachment. X12 = (S)‑(trifluoromethyl)‑L‑cysteine, O=C([C@H](CSC(F)(F)F)N[*:1])[*:2]; (N,N-diMe)A = (N,N-diMe)A, L-N,N-dimethylalanine, C[C@@H](C(=O)*)N(C)C; Leu(4-F) = 4-fluoroleucine, CC(C)(F)C[C@H](N[*:1])C(=O)[*:2]; Pro(4-spirocPr) = O=C(O)[C@@H]1CC2(CC2)CN1; Oic = O=C(O)[C@@H]1C[C@@H]2CCCC[C@@H]2N1; Phe(2-Cl) = N[C@@H](Cc1ccccc1Cl)C(=O)O; tBuAla = CC(C)(C)C[C@H](N)C(=O)O; Chg = N[C@H](C(=O)O)C1CCCCC1; Pen = CC(C)(S)[C@H](N)C(=O)O; NMePro = CN1CCC[C@H]1C(=O)*; 4Amb = NCc1ccc(C(=O)O)cc1; NMeC = CN[C@@H](CS)C(=O)O; Orn = NCCC[C@H](N)C(=O)O; Sar = CNCC(=O)O

T1: Recombinant human MASP1 enzyme (fragment corresponding to amino acids 297-699, C-terminal His Tag) (human, UniProt P48740 297-699)
T1 sequence: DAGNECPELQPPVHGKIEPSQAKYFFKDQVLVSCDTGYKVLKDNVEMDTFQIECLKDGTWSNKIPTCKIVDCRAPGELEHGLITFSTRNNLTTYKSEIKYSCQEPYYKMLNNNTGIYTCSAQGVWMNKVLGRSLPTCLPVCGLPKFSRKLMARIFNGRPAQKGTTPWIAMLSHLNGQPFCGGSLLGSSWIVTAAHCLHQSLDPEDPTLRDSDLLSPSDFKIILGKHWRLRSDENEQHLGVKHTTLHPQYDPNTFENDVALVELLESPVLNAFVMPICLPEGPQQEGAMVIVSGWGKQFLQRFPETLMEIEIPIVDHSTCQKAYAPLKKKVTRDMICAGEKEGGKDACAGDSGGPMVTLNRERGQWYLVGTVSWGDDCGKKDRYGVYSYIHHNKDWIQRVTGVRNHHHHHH


Legend:
[1] = molecular target: T1, Recombinant human MASP1 enzyme …; assay: cell-based or functional assay
[2] = molecular target: Recombinant human MASP2 enzyme (fragment corresponding to amino acids 297-686, C-terminal His Tag) (human, UniProt O00187 297-686); assay: cell-based or functional assay
Chain of Recombinant human MASP2 enzyme (fragment corresponding to amino acids 297-686, C-terminal His Tag) (O00187 other isoform, or with tags, fused parts or gaps limits assumed): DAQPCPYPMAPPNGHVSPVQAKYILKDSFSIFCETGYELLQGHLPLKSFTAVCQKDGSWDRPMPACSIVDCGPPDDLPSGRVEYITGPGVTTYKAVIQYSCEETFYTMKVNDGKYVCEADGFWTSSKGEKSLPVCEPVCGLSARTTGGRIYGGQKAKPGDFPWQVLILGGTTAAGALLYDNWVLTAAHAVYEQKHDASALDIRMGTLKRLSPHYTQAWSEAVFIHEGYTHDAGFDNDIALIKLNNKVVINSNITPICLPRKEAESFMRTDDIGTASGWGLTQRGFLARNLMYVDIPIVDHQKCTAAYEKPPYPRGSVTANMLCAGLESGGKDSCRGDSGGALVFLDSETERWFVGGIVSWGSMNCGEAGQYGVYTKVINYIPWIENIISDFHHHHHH

| human MASP1 IC50 [1] [nM] | human MASP2 IC50 [2] [nM] | Binder |
| --- | --- | --- |
| 8.45 | 295 | [Sar]ICSRSLP[Oic]I[Pen]I-NH2 (disulfide 3-11; N-terminus assumed; SMILES CC[C@H](C)[C@H](NC(=O)[C@H]1NC(=O)[C@H]([C@@H](C)CC)NC(=O)[C@@H]2C[C@@H]3CCCC[C@@H]3N2C(=O)[C@@H]2CCCN2C(=O)[C@H](CC(C)C)NC(=O)[C@H](CO)NC(=O)[C@H](CCCNC(=N)N)NC(=O)[C@H](CO)NC(=O)[C@@H](NC(=O)[C@@H](NC(=O)CNC)[C@@H](C)CC)CSSC1(C)C)C(N)=O) [((N-Me)G)-IC+SRSLP-(Oic)-I-(Pen)+I-NH2] |
| 8.1 | 130 | AICSRS[Phe(2-Cl)]PPI[NMeC]IPD-NH2 (disulfide 3-11; N-terminus assumed; SMILES CC[C@H](C)[C@H](NC(=O)[C@H](C)N)C(=O)N[C@H]1CSSC[C@@H](C(=O)N[C@H](C(=O)N2CCC[C@H]2C(=O)N[C@@H](CC(=O)O)C(N)=O)[C@@H](C)CC)N(C)C(=O)[C@H]([C@@H](C)CC)NC(=O)[C@@H]2CCCN2C(=O)[C@@H]2CCCN2C(=O)[C@H](Cc2ccccc2Cl)NC(=O)[C@H](CO)NC(=O)[C@H](CCCNC(=N)N)NC(=O)[C@H](CO)NC1=O) [AIC+SRS-((2-Chloro)F)-PPI-((N-Me)C)+IPD-NH2] |
| 8.1 | 35 | [4Amb]ICSRS[tBuAla]PPI[NMeC]IPD-NH2 (disulfide 3-11; N-terminus assumed; SMILES CC[C@H](C)[C@H](NC(=O)c1ccc(CN)cc1)C(=O)N[C@H]1CSSC[C@@H](C(=O)N[C@H](C(=O)N2CCC[C@H]2C(=O)N[C@@H](CC(=O)O)C(N)=O)[C@@H](C)CC)N(C)C(=O)[C@H]([C@@H](C)CC)NC(=O)[C@@H]2CCCN2C(=O)[C@@H]2CCCN2C(=O)[C@H](CC(C)(C)C)NC(=O)[C@H](CO)NC(=O)[C@H](CCCNC(=N)N)NC(=O)[C@H](CO)NC1=O) [(4-(Aminomethyl)benzoic acid)-IC+SRS-((tBu)A)-PPI-((N-Me)C)+IPD-NH2] |
| 8.3 | 120 | [(N,N-diMe)A]ICSRS[tBuAla]PPICIPD-NH2 (disulfide 3-11; N-terminus assumed; SMILES CC[C@H](C)[C@H](NC(=O)[C@H](C)N(C)C)C(=O)N[C@H]1CSSC[C@@H](C(=O)N[C@H](C(=O)N2CCC[C@H]2C(=O)N[C@@H](CC(=O)O)C(N)=O)[C@@H](C)CC)NC(=O)[C@H]([C@@H](C)CC)NC(=O)[C@@H]2CCCN2C(=O)[C@@H]2CCCN2C(=O)[C@H](CC(C)(C)C)NC(=O)[C@H](CO)NC(=O)[C@H](CCCNC(=N)N)NC(=O)[C@H](CO)NC1=O) [((N,N-diMe)A)-IC+SRS-((tBu)A)-PPIC+IPD-NH2] |
| 8.8 | 2600 | [Sar]ICSRS[tBuAla]PPICIPD-OH (disulfide 3-11; N-terminus assumed; SMILES CC[C@H](C)[C@H](NC(=O)CNC)C(=O)N[C@H]1CSSC[C@@H](C(=O)N[C@H](C(=O)N2CCC[C@H]2C(=O)N[C@@H](CC(=O)O)C(=O)O)[C@@H](C)CC)NC(=O)[C@H]([C@@H](C)CC)NC(=O)[C@@H]2CCCN2C(=O)[C@@H]2CCCN2C(=O)[C@H](CC(C)(C)C)NC(=O)[C@H](CO)NC(=O)[C@H](CCCNC(=N)N)NC(=O)[C@H](CO)NC1=O) [((N-Me)G)-IC+SRS-((tBu)A)-PPIC+IPD-OH] |
| 8.5 | 33 | AICSRSLP[Pro(4-spirocPr)]ICIPD-NH2 (disulfide 3-11; N-terminus assumed; SMILES CC[C@H](C)[C@H](NC(=O)[C@H](C)N)C(=O)N[C@H]1CSSC[C@@H](C(=O)N[C@H](C(=O)N2CCC[C@H]2C(=O)N[C@@H](CC(=O)O)C(N)=O)[C@@H](C)CC)NC(=O)[C@H]([C@@H](C)CC)NC(=O)[C@@H]2CC3(CC3)CN2C(=O)[C@@H]2CCCN2C(=O)[C@H](CC(C)C)NC(=O)[C@H](CO)NC(=O)[C@H](CCCNC(=N)N)NC(=O)[C@H](CO)NC1=O) [AIC+SRSLP-((6S)-5-Azaspiro[2.4]heptane-6-carboxylic acid)-IC+IPD-NH2] |
| 9.3 | 260 | [NMePro]ICSRS[tBuAla]PPICIPD-NH2 (disulfide 3-11; SMILES CC[C@H](C)[C@H](NC(=O)[C@@H]1CCCN1C)C(=O)N[C@H]1CSSC[C@@H](C(=O)N[C@H](C(=O)N2CCC[C@H]2C(=O)N[C@@H](CC(=O)O)C(N)=O)[C@@H](C)CC)NC(=O)[C@H]([C@@H](C)CC)NC(=O)[C@@H]2CCCN2C(=O)[C@@H]2CCCN2C(=O)[C@H](CC(C)(C)C)NC(=O)[C@H](CO)NC(=O)[C@H](CCCNC(=N)N)NC(=O)[C@H](CO)NC1=O) [((N-Me)P)-IC+SRS-((tBu)A)-PPIC+IPD-NH2] |
| 8.2 | 72.5 | AICSRSL[(4aR,6aR,9S,11aS)‑11‑Oxo‑2,3,4,4a,6a,7,8,9,11,11a‑decahydro‑1H‑pyrido(3,2-e)pyrrolo(1,2-a)azepine‑9‑carboxylic acid]ICIPD-NH2 (disulfide 3-10) |
| 1.4 | 37 | [Sar]ICSRSLP[Oic]I[Pen]IP-NH2 (disulfide 3-11; also: acetate salt) [((N-Me)G)-IC+SRSLP-(Oic)-I-(Pen)+IP-NH2 (Acetate)] |
| 8.1 | 56 | [Orn]ICSRS[X12]PPI[Pen]IP-NH2 (disulfide 3-11; N-terminus assumed; SMILES CC[C@H](C)[C@H](NC(=O)[C@@H](N)CCCN)C(=O)N[C@H]1CSSC(C)(C)[C@@H](C(=O)N[C@H](C(=O)N2CCC[C@H]2C(N)=O)[C@@H](C)CC)NC(=O)[C@H]([C@@H](C)CC)NC(=O)[C@@H]2CCCN2C(=O)[C@@H]2CCCN2C(=O)[C@H](CSC(F)(F)F)NC(=O)[C@H](CO)NC(=O)[C@H](CCCNC(=N)N)NC(=O)[C@H](CO)NC1=O) [(Orn)-IC+SRS-((S)-(trifluoromethyl)-L-cysteine)-PPI-(Pen)+IP-NH2] |
| 8.9 | 300 | AICSRS[Leu(4-F)]PPICIPD-NH2 (disulfide 3-11; N-terminus assumed; SMILES CC[C@H](C)[C@H](NC(=O)[C@H](C)N)C(=O)N[C@H]1CSSC[C@@H](C(=O)N[C@H](C(=O)N2CCC[C@H]2C(=O)N[C@@H](CC(=O)O)C(N)=O)[C@@H](C)CC)NC(=O)[C@H]([C@@H](C)CC)NC(=O)[C@@H]2CCCN2C(=O)[C@@H]2CCCN2C(=O)[C@H](CC(C)(C)F)NC(=O)[C@H](CO)NC(=O)[C@H](CCCNC(=N)N)NC(=O)[C@H](CO)NC1=O) [AIC+SRS-((4-Fluoro)L)-PPIC+IPD-NH2] |
| 8.9 | 92 | AICSRSLPP[Chg]CI-NH2 (disulfide 3-11; N-terminus assumed; SMILES CC[C@H](C)[C@H](NC(=O)[C@@H]1CSSC[C@H](NC(=O)[C@@H](NC(=O)[C@H](C)N)[C@@H](C)CC)C(=O)N[C@@H](CO)C(=O)N[C@@H](CCCNC(=N)N)C(=O)N[C@@H](CO)C(=O)N[C@@H](CC(C)C)C(=O)N2CCC[C@H]2C(=O)N2CCC[C@H]2C(=O)N[C@@H](C2CCCCC2)C(=O)N1)C(N)=O) [AIC+SRSLPP-(Chg)-C+I-NH2] |
